Data taken from patent US20120316071A1 (published 2012).
Substitutions are numbered along the chain they refer to. Names and notes keep the numbering of the source. Values belong to the binder of their own block, whether it stands above or below them.

Assays:
[1] = molecular target: T1, rHuman HGF R/c-MET/Fc Chimera, CF (R&D Systems Cat#358-MT/CF) (human, UniProt P08581 25-932); assay: ECL Multispot (MSD), antigen spotted on plate, Fab 0.1 uM;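 note: ratio compares each antigen's electrochemiluminescence to the blank within the same well, with a ratio of at least 4 counted as a binding Fab hit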
T1 construct: Bought recombinant Fc chimera; also called HGF R/Fc; not shown: Fc of the bought R&D Systems chimera

[2] = molecular target: T2, rHuman EGF R/Fc Chimera, CF (R&D Systems Cat#344-ER) (human, UniProt P00533 25-645); assay: as above
T2 construct: Bought recombinant Fc chimera; not shown: Fc of the bought R&D Systems chimera

[3] = molecular target: T3, Recombinant Human DLL4 (R&D Systems Cat#1506-D4/CF) (human, UniProt Q9NR61 27-524); assay: as above
T3 construct: Bought recombinant protein; also called delta-like protein 4; rHuman DLL4

[4] = molecular target: T4, rHuman Erythropoietin R/Fc Chimera, CF (R&D Systems Cat#963-ER) (human, UniProt P19235 25-250); assay: as above
T4 construct: Bought recombinant Fc chimera; also called EPO R; EPO R/Fc; not shown: Fc of the bought R&D Systems chimera
T4 sequence (looked up): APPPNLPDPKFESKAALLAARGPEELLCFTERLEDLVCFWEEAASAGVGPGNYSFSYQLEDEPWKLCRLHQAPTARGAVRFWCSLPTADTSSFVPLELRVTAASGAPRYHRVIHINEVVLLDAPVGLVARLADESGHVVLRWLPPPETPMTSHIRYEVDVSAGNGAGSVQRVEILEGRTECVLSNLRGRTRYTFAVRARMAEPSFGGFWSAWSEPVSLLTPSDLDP

[5] = molecular target: T5, rHuman CD44/Fc Chimera, CF (R&D Systems Cat#3660-CD) (human, UniProt P16070 21-220); assay: as above
T5 construct: Bought recombinant Fc chimera; not shown: Fc of the bought R&D Systems chimera

[6] = molecular target: T6, rHuman IGF-1 sR, CF (R&D Systems Cat#391-GR) (human, UniProt P08069 31-932); assay: as above
T6 construct: Bought recombinant soluble receptor; also called insulin-like growth factor-1 soluble receptor

[7] = molecular target: T7, rHuman P-Cadherin/Fc Chimera, CF (R&D Systems Cat#861-PC) (human, UniProt P22223 108-654); assay: as above
T7 construct: Bought recombinant Fc chimera; not shown: Fc of the bought R&D Systems chimera

[8] = molecular target: T8, rHuman Notch-1/Fc Chimera, CF (R&D Systems Cat#3647-TK) (human, UniProt P46531 19-526); assay: as above
T8 construct: Bought recombinant Fc chimera; not shown: Fc of the bought R&D Systems chimera

[9] = molecular target: T9, rHuman ErbB2/Fc Chimera, CF (R&D Systems Cat#1129-ER) (human, UniProt P04626 23-652); assay: as above
T9 construct: Bought recombinant Fc chimera; not shown: Fc of the bought R&D Systems chimera

[10] = molecular target: T10, rHuman Notch-1/Fc Chimera, CF (R&D Systems Cat#3647-TK) (human, UniProt P46531 19-526); assay: ECL multispot (MSD) binding assay; antigen spotted on plate, Fab in solution, Ru-labelled anti-kappa detection;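 note: purified Fab in 1% BSA TBST incubated 1 h at 20 °C with shaking, signal compared with each well's blank, signal/blank ratio of 4 or above counted as binder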
T10 construct: Bought from R&D Systems; Fc part of the bought chimera not given

[11] = molecular target: T11, rHuman ErbB2/Fc Chimera, CF (R&D Systems Cat#1129-ER) (human, UniProt P04626 23-652); assay: as above
T11 construct: Bought from R&D Systems; also called human epidermal growth factor 2 receptor; Fc part of the bought chimera not given

[12] = molecular target: T12, rHuman Erythropoietin R/Fc Chimera, CF (R&D Systems Cat#963-ER) (human, UniProt P19235 25-250); assay: as above
T12 construct: Bought from R&D Systems; also called EPO R; EPO R/Fc; Fc part of the bought chimera not given
T12 sequence (looked up): T4 sequence (looked up)

[13] = molecular target: T13, rHuman EGF R/Fc Chimera, CF (R&D Systems Cat#344-ER) (human, UniProt P00533 25-645); assay: as above
T13 construct: Bought from R&D Systems; also called epidermal growth factor receptor; Fc part of the bought chimera not given

[14] = molecular target: T14, rHuman P-Cadherin/Fc Chimera, CF (R&D Systems Cat#861-PC) (human, UniProt P22223 108-654); assay: as above
T14 construct: Bought from R&D Systems; Fc part of the bought chimera not given

[15] = molecular target: T15, rHuman HGF R/c-MET/Fc Chimera, CF (R&D Systems Cat#358-MT/CF) (human, UniProt P08581 25-932); assay: as above
T15 construct: Bought from R&D Systems; also called HGF R/Fc; hepatocyte growth factor receptor; Fc part of the bought chimera not given

[16] = molecular target: T16, Recombinant Human DLL4 (R&D Systems Cat#1506-D4/CF) (human, UniProt Q9NR61 27-524); assay: as above
T16 construct: Bought from R&D Systems; also called delta-like protein 4; rHuman DLL4

[17] = molecular target: T17, rHuman IGF-1 sR, CF (R&D Systems Cat#391-GR) (human, UniProt P08069 31-932); assay: as above
T17 construct: Bought from R&D Systems as a soluble receptor; also called insulin-like growth factor-1 soluble receptor

[18] = molecular target: T18, rHuman CD44/Fc Chimera, CF (R&D Systems Cat#3660-CD) (human, UniProt P16070 21-220); assay: as above
T18 construct: Bought from R&D Systems; Fc part of the bought chimera not given

[19] = molecular target: T19, rHuman Notch-1/Fc Chimera, CF (R&D Systems Cat#3647-TK) (human, UniProt P46531 19-526); assay: ECL Multispot (MSD) assay, antigen spotted on plate, 10 nM Fab;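 note: purified Fab bound to antigen spots for 1 h at 20 °C, then TAG detection antibody, electrochemiluminescence compared with each well's blank, ratio of 4 or more marks a hit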
T19 construct: Bought recombinant protein

[20] = molecular target: T20, rHuman ErbB2/Fc Chimera, CF (R&D Systems Cat#1129-ER) (human, UniProt P04626 23-652); assay: as above
T20 construct: Bought recombinant protein

[21] = molecular target: T21, rHuman HGF R/c-MET/Fc Chimera, CF (R&D Systems Cat#358-MT/CF) (human, UniProt P08581 25-932); assay: as above
T21 construct: Bought recombinant protein; also called HGF R/Fc

[22] = molecular target: T22, rHuman P-Cadherin/Fc Chimera, CF (R&D Systems Cat#861-PC) (human, UniProt P22223 108-654); assay: as above
T22 construct: Bought recombinant protein

[23] = molecular target: T23, rHuman CD44/Fc Chimera, CF (R&D Systems Cat#3660-CD) (human, UniProt P16070 21-220); assay: as above
T23 construct: Bought recombinant protein

[24] = molecular target: T24, rHuman IGF-1 sR (insulin-like growth factor-1 soluble receptor), CF (R&D Systems Cat#391-GR) (human, UniProt P08069 31-932); assay: as above
T24 construct: Bought recombinant soluble receptor

[25] = molecular target: T25, rHuman Erythropoietin R/Fc Chimera, CF (R&D Systems Cat#963-ER) (human, UniProt P19235 25-250); assay: as above
T25 construct: Bought recombinant protein; also called EPO R; EPO R/Fc
T25 sequence (looked up): T4 sequence (looked up)

[26] = molecular target: T26, rHuman EGF R/Fc Chimera, CF (R&D Systems Cat#344-ER) (human, UniProt P00533 25-645); assay: as above
T26 construct: Bought recombinant protein

[27] = molecular target: T27, Recombinant Human DLL4 (R&D Systems Cat#1506-D4/CF) (human, UniProt Q9NR61 27-524); assay: as above
T27 construct: Bought recombinant protein; also called delta-like protein 4; rHuman DLL4

[28] = molecular target: T27, Recombinant Human DLL4 (R&D Systems …); assay: ECL (MSD) binding assay, immobilised DLL4, repeat experiment
[29] = molecular target: T27, Recombinant Human DLL4 (R&D Systems …); assay: ECL (MSD) binding assay, DLL4 signal divided by blank, repeat experiment
[30] = molecular target: T1, rHuman HGF R/c-MET/Fc Chimera, CF (R&D …); assay: ECL Multispot (MSD), antigen spotted on plate, Fab 0.01 uM;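 note: electrochemiluminescence of each antigen spot divided by the blank of the same well, with a value of 4 or above scoring the Fab as a binding hit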
[31] = molecular target: T2, rHuman EGF R/Fc Chimera, CF (R&D …); assay: as above
[32] = molecular target: T3, Recombinant Human DLL4 (R&D Systems …); assay: as above
[33] = molecular target: T6, rHuman IGF-1 sR, CF (R&D Systems …); assay: as above

B1: Fab VH1-46_IGHD6-6*01_IGHJ1*01 & L6_IGKJ1*01 (Fab, V domains shown)
VH: QVQLVQSGAEVKKPGASVKVSCKASGYTFTSYYMHWVRQAPGQGLEWMGIINPSGGSTSYAQKFQGRVTMTRDTSTSTVYMELSSLRSEDTAVYYCAREEYSSSSAEYFQHWGQGTLVTVSS
VL: not shown
notes: Germline 'Hit' Fab made in E. coli; The heavy chain variable region was cloned into Plasmid A (CH1, His6 and Flag tags) and the kappa light chain variable region into Plasmid C (kappa CL); also called Parent; parental
ECL signal/noise ratio [1]: 1.3 | ECL signal/noise ratio [2]: 1.2 | ECL signal/noise ratio [3]: 40.9 | ECL signal/noise ratio [4]: 1.2 | ECL signal/noise ratio [5]: 1.8 | ECL signal/noise ratio [6]: 1.6 | ECL signal/noise ratio [7]: 1.6 | ECL signal/noise ratio [8]: 1.7 | ECL signal/noise ratio [9]: 1.2

B5: Fab VH1-46_IGHD6-6*01_IGHJ1*01 S102A/S103P/S104F/H111F T30A & L6_IGKJ1*01 (Fab, V domains shown)
VH: B1 VH with T30A, S102A, S103P, S104F, H111F
VL: not shown
notes: Fab as for m1 (CH1 with His6/Flag tags, kappa CL); also called APFF T30A
ECL signal [19]: 270 | ECL signal [20]: 272 | ECL signal [21]: 413 | ECL signal [22]: 275 | ECL signal [23]: 439 | ECL signal [24]: 356 | ECL signal [25]: 428 | ECL signal [26]: 427 | ECL signal [27]: 140000 | ECL signal [28]: 178000 | Signal/Noise [29]: 503

B6: Fab VH1-46_IGHD6-6*01_IGHJ1*01 S102A/S103P/S104F/H111F T28A & L6_IGKJ1*01 (Fab, V domains shown)
VH: B1 VH with T28A, S102A, S103P, S104F, H111F
VL: not shown
notes: Fab as for m1 (CH1 with His6/Flag tags, kappa CL); also called APFF T28A
ECL signal [19]: 432 | ECL signal [20]: 411 | ECL signal [21]: 427 | ECL signal [22]: 381 | ECL signal [23]: 471 | ECL signal [24]: 408 | ECL signal [25]: 480 | ECL signal [26]: 389 | ECL signal [27]: 140000 | ECL signal [28]: 181000 | Signal/Noise [29]: 404

B7: Fab VH1-46_IGHD6-6*01_IGHJ1*01 S102A/S103P/S104F/H111F Y33A & L6_IGKJ1*01 (Fab, V domains shown)
VH: B1 VH with Y33A, S102A, S103P, S104F, H111F
VL: not shown
notes: Fab as for m1 (CH1 with His6/Flag tags, kappa CL); also called APFF Y33A
ECL signal [19]: 244 | ECL signal [20]: 394 | ECL signal [21]: 345 | ECL signal [22]: 383 | ECL signal [23]: 294 | ECL signal [24]: 308 | ECL signal [25]: 373 | ECL signal [26]: 372 | ECL signal [27]: 27000 | ECL signal [28]: 59500 | Signal/Noise [29]: 225

Results, then the binder that gave them:

ECL signal [10]: 427 | ECL signal [11]: 253 | ECL signal [12]: 507 | ECL signal [13]: 377 | ECL signal [14]: 262 | ECL signal [15]: 358 | ECL signal [16]: 176000 | ECL signal [17]: 268 | ECL signal [18]: 235
B2: Fab VH1-46_IGHD6-6*01_IGHJ1*01 S102A/S103P/S104F/H111F S31A & L6_IGKJ1*01 (Fab, V domains shown)
VH: B1 VH with S31A, S102A, S103P, S104F, H111F
VL: not shown
notes: Tested as a Fab made in E. coli; The heavy chain vector (Plasmid A) adds CH1 with His6 and Flag tags; The light chain vector (Plasmid C) adds kappa CL; also called APFF S31A

ECL signal [19]: 333 | ECL signal [20]: 207 | ECL signal [21]: 398 | ECL signal [22]: 255 | ECL signal [23]: 379 | ECL signal [24]: 405 | ECL signal [25]: 454 | ECL signal [26]: 394 | ECL signal [27]: 138000 | ECL signal [28]: 176000 | Signal/Noise [29]: 530
B3: Fab VH1-46_IGHD6-6*01_IGHJ1*01 S102A/S103P/S104F/H111F S31A & L6_IGKJ1*01 (Fab, V domains shown)
VH: B1 VH with S31A, S102A, S103P, S104F, H111F
VL: not shown
notes: Fab as for m1 (CH1 with His6/Flag tags, kappa CL); also called APFF S31A

ECL signal/noise ratio [1]: 1.6 | ECL signal/noise ratio [2]: 2 | ECL signal/noise ratio [3]: 195 | ECL signal/noise ratio [6]: 1.7 | ECL signal/noise ratio [30]: 0.6 | ECL signal/noise ratio [31]: 0.8 | ECL signal/noise ratio [32]: 15.3 | ECL signal/noise ratio [33]: 0.6
B4: Fab VH1-46_IGHD6-6*01_IGHJ1*01 S104F & L6_IGKJ1*01 (Fab, V domains shown)
VH: B1 VH with S104F
VL: not shown
notes: Fab made in E. coli; The heavy chain variable region was cloned into Plasmid A (CH1, His6 and Flag tags) and the kappa light chain variable region into Plasmid C (kappa CL)
